According to patent publication US20190300580A1:

How the values were obtained:
[1] = target: Dengue serotype 3 VLP (The Native Antigen Company), wild type (dengue virus serotype 3); experiment: competition ELISA on VLP, unlabelled 4G2 at 10 micrograms per ml against biotinylated 4G2
[2] = target: wild type dengue serotype 2 exodomain, HEK293-produced (The Native Antigen Company DENV2-ENV) (dengue virus serotype 2); experiment: ELISA, His-tagged exodomain captured by anti-His-tag antibody, 4G2 titrated (FIG. 5a)
[3] = target: wild type dengue serotype 4 exodomain (The Native Antigen Company DENV4-ENV) (dengue virus serotype 4); experiment: as above

Substance: fusion-loop antibody 4G2 (The Native Antigen Company AbFLAVENV-4G2)
- % inhibition [1]: 80%
- low antibody concentration still giving a signal above background [2]: 250 pg/mL
- low antibody concentration still giving a signal above background [3]: 250 pg/mL
